Laboratory results from the DeepSol protein solubility set.

Experiment: soluble on expression in E. coli; label from the status in PepcDB or PDB records

Sequence | soluble on expression in E. coli
MINSSEGKSDNKIIEKATQILSKYPLCDSCLGRCFARLGYGLENKERGRAIKISLMLILDEKIKNHEIGDLSSIKRIMENLGPIAEKWYKLYFSSEFHSHPCYLCQNKIEDIKEDFSDKAFKLLSGLGVKSYVLGVELDEETKKKESKIIEEFTLMYYESIKHEIKREVGKTLSKRGYPPNMDNPEVEIVYRLSDLQVFIISKNIRTFYVYNRLNRNLPISSWFSKQGNEGLNTLLQRKIVFAFSEPTTVRILADYPIVIENEGRDKIDVGGYYIFKVMTVGKKELQAISAAKPTMRKYRVTVYSTSSLSDAIRVYGNIYDLYIDAKSFSELNEKLSKLKSQYEIIVLSVDLIDVKGRIKDIIENYLKSFLEHHHHHH | not soluble
MMKRQLHRMRQLAQTGSLGRTPETAEFLGEDLLQVEQRLEPAKRAAHNIHKRLQACLQGQSGADMDKRVKKLPLMALSTTMAESFKELDPDSSMGKALEMSCAIQNQLARILAEFEMTLERDVLQPLSRLSEEELPAILKHKKSLQKLVSDWNTLKSRLSQATKNSGSSQGLGGSPGSHSHTTMANKVETLKEEEEELKRKVEQCRDEYLADLYHFVTKEDSYANYFIRLLEIQADYHRRSLSSLDTALAELRENHGQADHSPSMTATHFPRVYGVSLATHLQELGREIALPIEACVMMLLSEGMKKEGLFRLAAGASVLKRLKQTMASDPHSLEEFCSDPHAVAGALKSYLRELPEPLMTFDLYDDWMRAASLKEPGARLQALQEVCSRLPPENLSNLRYLMKFLARLAEEQEVNKMTPSNIAIVLGPNLLWPPEKEGDQAQLDAASVSSIQVVGVVEALIQSADTLFPGDINFNVSGLFSAVTLQDTVSDRLASEELPSTAVPTPATTPAPAPAPAPAPAPALASAATKERTESEVPPRPASPKVTRSPPETAAPVEDMARRSPRGATGR | soluble
MRWRADFLSAWAEALLRKAGADEPSAKAVAWALVEADLRGVGSHGLLRLPVYVRRLEAGLVNPSPTLPLEERGPVALLDGEHGFGPRVALKAVEAAQSLARRHGLGAVGVRRSTHFGMAGLYAEKLAREGFVAWVTTNAEPDVVPFGGREKALGTNPLAFAAPAPQGILVADLATSESAMGKVFLAREKGERIPPSWGVDREGSPTDDPHRVYALRPLGGPKGYALALLVEVLSGVLTGAGVAHGIGRMYDEWDRPQDVGHFLLALDPGRFVGKEAFLERMGALWQALKATPPAPGHEEVFLPGELEARRRERALAEGMALPERVVAELKALGERYGVPWRDDA | soluble
MGSDKIHHHHHHMQEIFAVLPETIRQLLKKLPPSIQKDVEEIRIRVHRPLEVIVNHLPHYPEHQGCEYVVTTKDAQFLLNQLSAYSIYAFEEELKRGFITMAGGHRVGLAGKVTLEKGYVKTVRDISSFNIRVAKQKIGTAEPLISHVYQKGWLNTLLIGPPQSGKTTLLRDLARLVSVGWSRKGIPPLKVGIVDERSEIAAAVKGVPQHELGMRVDVLDGCPKAEGMMMMIRSMSPDVLIVDEIGRKEDCVAIQEALHAGVKVMTTAHGYELEEVSKRPAIRELLEIEAFDRCIELERRAKPGVVRRIRNAKAKDVGYVS | not soluble
MENFPIISLDKVNGVERAATMEMIKDACENWGFFELVNHGIPREVMDTVEKMTKGHYKKCMEQRFKELVASKALEGVQAEVTDMDWESTFFLKHLPISNISEVPDLDEEYREVMRDFAKRLEKLAEELLDLLCENLGLEKGYLKNAFYGSKGPNFGTKVSNYPPCPKPDLIKGLRAHTDAGGIILLFQDDKVSGLQLLKDGQWIDVPPMRHSIVVNLGDQLEVITNGKYKSVMHRVIAQKDGARMSLASFYNPGSDAVIYPAPALVEKEAEENKQVYPKFVFDDYMKLYAGLKFQAKEPRFEAMKAMETDVKMDPIATV | soluble
MGSDKIHHHHHHMEQAATQRLATGIPGLDEICGGGLVPRYAYLVRGGPGTGKTTLGLHFLAAGAANGETTLFISLEETESKIRWNAAQTGINLNQVHILDLSPSSDFFANTQIYDIFSPAEVEREPITRQIVETVQRLQPTRVFLDSITQFRYLTPDTFQFRKQVISFLRFLAEQRTTVVFSAENSAAFPDDDLQYIADGIISLELTNTGRYLTVSKMRGSSFVSGRHAMRLTTQGLQVFPRIIPTPLVAGHAFTLIPSGVPELDELLNGGVERGTITLITGPSGVGKTTLGFQFMKEAASRGERSMVFSFEEEIEIMQQRCEAVNIPVRAMQKQQLLRIEKIEPLQYNPAEFAQHVRYFIEQEQIKVVMIDSVTGYRLCMHGEDLISQLHALSKYLQSRGVTVFLIMDTTDIVGDFKVTEIGASYLGDNIIFLRFLEIEGELRKAIGVLKKRLGDFEKTLREFAISRYGIKVGKPLTNLRGILSGMPTWVDKA | not soluble
MEKLYEGKAKVLYREGPDTLRVYFKDEATAFNAQKRGVIPGKGVVNNKVSAALFRYLEAHGVKTHFLEEVSDREMRVRRVEILPLEVILRFRAAGSFARRYGLKEGTPLKMPLLEFSLKNDALGDPLICENAVLALGLTTEGELEGVKAATLRVGDLLKAFFAERGLELVDFKLEFGKVGGEILLADEISPDTMRLWDEKGEPLDKDRFRKDLGGVEEAYREVLRRVLG | soluble
MPIASYAQELKLALHQYPNFPSEGILFEDFLPIFRNPGLFQKLIDAFKLHLEEAFPEVKIDYIVGLESRGFLFGPTLALALGVGFVPVRKAGKLPGECFKATYEKEYGSDLFEIQKNAIPAGSNVIIVDDIIATGGSAAAAGELVEQLEANLLEYNFVMELDFLKGRSKLNAPVFTLLNAQKEALKK | soluble
MGSDKIHHHHHHMSQIIAIHSFRGGTGKSNIIANIGATMALKGQRVGIIDTDIQSPGIHIIFGLKEEKIRLTLNDYLWKRCDIQDTAYDVTDTLIAESGNTDKIRGSLYLIPSSIKAAEIARVLREGYDVVRLHDGFQEIIRSLKLDYLLIDTHPGLNEETLISIGIANTLLIILRPDNQDFQGTAVTVDVARKLKAARILLVLNKALASFNFTDLQQQLEQIYDVPVVGILPLAEDMVQLASKGLFCLRYPQHPITQTIQEITDQLAGLVVSHQ | not soluble
SKTNPRLSSLIADLKSAARSSGGAVWGDVAERLEKPRRTHAEVNLGRIERYAQEDETVVVPGKVLGSGVLQKDVTVAAVDFSGTAETKIDQVGEAVSLEQAIENNPEGSHVRVIR | soluble
MGMFERDTEIYLDRDALREDYQPENLVGRDTELNRYRAALQPVINGEQPNNIFLYGKTGVGKTAGTRYLIDHLEEDAAKYEDIDLTVKMLNCDGLSSSYQIATRLVNEFRDETSQISTTGYPRATVYDMLWTELDSCGGTIYIVLDEVDHIEDDSILYQLPRARANDNLSSAKIGIIGISNDFSFRDDLSPKVKSSLCEEEIQFPA | not soluble
MSLDKEYRITLLHNVAHYGHAEATRILLAAGARVNAVNGEGNTPLFAAVHEGHDDVARILLDAGADVTIANSYWYTPLREACRRGNTGMVRLLLEKGADVNITDNKGFTPLHAAVSAEALEAATLILDSGADINIAGRYGDTPLHYAVGLGYEEFVRLFLARGADPTIRNDRGLTPRQLAEERGFASIVELFRNWGKNTEGHHHHHH | soluble
MGGCCSQEGCNTRPRYLPLKCYPGLPMRATRRLDLSAVERALREVQGRFAELSQHFTEPRDPFTDEVLLNVVEGYALIDDYVARGIDLFDLQQLNLMLEINATVLCGSDPARRLEFAPHLAATEAHFFNNVEGGIKDLYNWYCAYRSDSIWKRAAGVYVRILSKPQLFIEGNNRTGSLIVSYLLMRAGLPPFVLSLDNAEGYFNPSSVIRNSAKHGVKALYELPKIKKKYAAFLEAKAPEPGKFFLNGTPVPACEGSRLEHHHHHH | soluble
MRDFLNTKNQTNQSVYLAILRIKMKTPYQIQFEAFNADDFYTEAHAKLYAQFADNLINEGNYSIVYKGVAHACYTPITIDKAPHLKCFVLAPLAVLPEHQGKGYATQLMEQAESELGADVIFVLGDPKHYARRFNAQHNVALPIGSDESPDFWFARELTTDALDGIGQSSSTIKGVFADPIMWSHPDEQI | not soluble
MGSDKIHHHHHHMSIAVTTTDPTNTGVSTTSSSSLTGSNAADLQSSFLTLLVAQLKNQDPTNPMENNELTSQLAQISTVSGIEKLNTTLGSISGQIDNSQSLQASNLIGHGVMIPGTTVLAGTGSEEGAVTTTTPFGVELQQAADKVTATITDKNGAVVRTIDIGELTAGVHSFTWDGTLTDGSTAPNGSYNVAISASNGGTQLVAQPLQFALVQGVIRGNSGNTLDLGTYGTTTLDEVRQII | not soluble
MGSDKIHHHHHHMKFFNREKEIEEILHIIESEPQRINFIFGSINSGKTALINEIINNRLNKDKYVVFYFDLREIFISKYDDFIEVLFEEYEEPFIDKVKRLFLSLIKDYPDVIKSYALLNITGVVDSIPIPKNTLNELLKKRNVKNVFRYITSVLIKIKREGKQPIIIIDELQKIGDLKLNGFLIYELFNYFVSLTKHKHLCHVFCLSSDSLFIERVYNEAMLEGRCKYILVDDFDRETALKFMDFLAKENNINLTNEDKELIYNYVGGKPIDIIYVINEMKYKKLEDILTSMLKEETQKLKYFLENVKEEDEELYKKVVDALKIFKDSYEIEDIKIPKKLREFLVKKNILFLNPIEGTLKPQSFLVWNAIKRIL | not soluble
MGSDKIHHHHHHMTICYNFAYLDEGTKKKIRRTLLKAVAIPGHQIPFASREMPLPYGWGTGGIQVTAAVIGPEDILKVIDQGSDDTTNAVSIRNFFRSTTGVRTTTSTREATLIQTRHRIPETPLHAGQMLIYQVPMPEPLFKLEPRVSETIALHAMADYSLMYLKLYDQITRYGRIAIGYEYPVIVHDRYLTSSSPIPAYDVPKMHMSPALQLFGAGREKRLYAIPPYTRVIPLDFTDYPFDPVNTWQPCALCGAVESYKDEIVIDDAGNRQFICSDTDFCEHRR | not soluble
MPSSDPTQSSGFAGLRSTSWPVLGILSFGEELSGYDLKKWASYSVRFFYWSPSFSQVYSELKKLEDLGYVTSRTVVDDEARVKPKRLYKITDAGMAVMRSWAREAPIDPPVLKHGVMLRMWLGHLTEPEQLKDALKEHISYVEGMSRQAALDARDSDVEPTWAFAHMVNKWSERYYAAESELAKQMLADIDEAVERMHGEGTPEHPGVPKPTASHSIRRSREAQKEYQAAMKAAQDADDEAERED | not soluble
MSLIGITQRLICNDSYHEKRECLALDWGKLFNKDLFKNFTPLPLSYEIDFSYYKHLIKAVILSGGNDLSFYSPNVLSKKRDLYEKQVIEICLEEKIPLLGICRGAQMIAHYFNSHISPCENHIGKHEVFFSKEKFISNSFHNFAIEKLGEDLVELCLAKDNTIEAFKHKYENIFGIMWHIERENGLNNIQILKEWFSLIKEGHHHHHH | not soluble
MERKALVTGGSRGIGRAIAEALVARGYRVAIASRNPEEAAQSLGAVPLPTDLEKDDPKGLVKRALEALGGLHVLVHAAAVNVRKPALELSYEEWRRVLYLHLDVAFLLAQAAAPHMAEAGWGRVLFIGSVTTFTAGGPVPIPAYTTAKTALLGLTRALAKEWARLGIRVNLLCPGYVETEFTLPLRQNPELYEPITARIPMGRWARPEEIARVAAVLCGDEAEYLTGQAVAVDGGFLAY | soluble
MLRSSLLPFSYLYEKIINFRNTLYDKGFLKIKKLPVPVISVGNLSVGGSGKTSFVMYLADLLKDKRVCILSRGYKRKSKGTLIVSEYGNLKVSWEEAGDEPYLMAKLLPHVSVVASEDRYKGGLLALEKLSPEVFILDDGFQHRKLHRDLNILLLKKKDLKDRLLPAGNLREPLKEIRRADALVLTYQEVEPFEFFTGKPTFKMFREFCCLLNSDFEEVPFDILKEREVIAFSGLGDNGQFRKVLKNLGIKVKEFMSFPDHYDYSDFTPEEGEIYLTTPKDLIKLQGYENVFALNFKVKLEREEKLKKLIYRIFYLEHHHHHH | soluble
